The values that follow are results of earlier work, collected in paper PMC9974451.

The target in this data set is Ubc9 (Homo sapiens) (UniProt P63279). Description: differential scanning fluorometry. In general terms: Differential scanning fluorimetry follows unfolding on heating by fluorescence.
Ubc9 (Homo sapiens), sequence (P63279 2-158): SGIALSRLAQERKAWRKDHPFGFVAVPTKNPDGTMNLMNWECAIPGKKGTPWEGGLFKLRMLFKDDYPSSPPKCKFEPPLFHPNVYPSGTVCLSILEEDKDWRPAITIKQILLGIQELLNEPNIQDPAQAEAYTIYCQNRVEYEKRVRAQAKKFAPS

importin 13, sequence (O94829 whole entry): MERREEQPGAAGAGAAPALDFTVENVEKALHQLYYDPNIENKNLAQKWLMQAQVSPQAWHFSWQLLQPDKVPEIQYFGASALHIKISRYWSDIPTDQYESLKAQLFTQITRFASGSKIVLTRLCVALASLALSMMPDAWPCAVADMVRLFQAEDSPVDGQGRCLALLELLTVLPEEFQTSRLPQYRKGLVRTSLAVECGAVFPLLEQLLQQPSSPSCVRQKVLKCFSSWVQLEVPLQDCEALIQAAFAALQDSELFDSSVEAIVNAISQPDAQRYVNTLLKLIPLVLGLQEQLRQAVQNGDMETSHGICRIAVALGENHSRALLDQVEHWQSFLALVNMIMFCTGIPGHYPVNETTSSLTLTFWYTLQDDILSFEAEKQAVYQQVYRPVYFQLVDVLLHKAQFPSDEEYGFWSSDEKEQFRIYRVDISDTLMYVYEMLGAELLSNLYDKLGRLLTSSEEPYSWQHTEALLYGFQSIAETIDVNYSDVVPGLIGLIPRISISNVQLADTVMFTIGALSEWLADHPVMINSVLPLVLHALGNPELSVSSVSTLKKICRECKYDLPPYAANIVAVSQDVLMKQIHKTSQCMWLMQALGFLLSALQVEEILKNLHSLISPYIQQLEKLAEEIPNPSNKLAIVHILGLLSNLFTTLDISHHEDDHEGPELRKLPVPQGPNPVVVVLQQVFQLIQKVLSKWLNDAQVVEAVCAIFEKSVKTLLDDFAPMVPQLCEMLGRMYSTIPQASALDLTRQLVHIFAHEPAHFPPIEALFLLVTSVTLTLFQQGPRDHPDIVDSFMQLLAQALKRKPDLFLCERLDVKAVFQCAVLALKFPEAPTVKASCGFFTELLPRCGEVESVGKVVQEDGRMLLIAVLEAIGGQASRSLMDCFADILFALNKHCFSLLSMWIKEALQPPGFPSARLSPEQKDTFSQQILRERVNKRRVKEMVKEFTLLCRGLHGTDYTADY

One may read the Kd as the equilibrium constant for the complex coming apart. Turning to importin 13 (from UniProt O94829), the Kd was 370 nM.
